PMC4442024 (Nature, 2015)
Where “and” joins values, the source holds several entries; their conditions need not be identical. Equal values may be shown once.

B2: purified recombinant Flag-tagged SNAP29 (natural protein, human, UniProt O95721 1-258, looked up)
chain: MSAYPKSYNPFDDDGEDEGARPAPWRDARDLPDGPDAPADRQQYLRQEVLRRAEATAASTSRSLALMYESEKVGVASSEELARQRGVLERTEKMVDKMDQDLKISQKHINSIKSVFGGLVNYFKSKPVETPPEQNGTLTSQPNNRLKEAISTSKEQEAKYQASHPNLRKLDDTDPVPRGAGSAMSTDAYPKNPHLRAYHQKIDSNLDELSMGLGRLKDIALGMQTEIEEQDDILDRLTTKVDKLDVNIKSTERKVRQL

Key:
[1] = biological target: purified recombinant ATG14 (UniProt Q6ZNE5); assay: SEC-MALS
[2] = biological target: B2; assay: SEC
[3] = biological target: T1, purified recombinant Flag–STX17 (human, UniProt P56962 1-302); assay: SEC
T1 sequence (looked up): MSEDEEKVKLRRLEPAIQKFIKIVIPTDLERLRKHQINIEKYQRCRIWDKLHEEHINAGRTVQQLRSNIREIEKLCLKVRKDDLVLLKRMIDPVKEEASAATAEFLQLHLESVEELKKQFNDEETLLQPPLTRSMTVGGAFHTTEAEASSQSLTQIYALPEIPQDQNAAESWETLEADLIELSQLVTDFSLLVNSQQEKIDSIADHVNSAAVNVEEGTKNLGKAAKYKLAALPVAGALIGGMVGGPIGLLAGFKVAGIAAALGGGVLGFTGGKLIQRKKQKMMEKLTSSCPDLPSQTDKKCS

Question: For “purified recombinant ATG14 (from UniProt Q6ZNE5 1-492) (natural protein; other documents disagree on this pair)”, which stoichiometry N [1] is on record?
Answer: Its stoichiometry N is 2 and 4.

B1: purified recombinant Flag-tagged VAMP8 (natural protein, human, UniProt Q9BV40 1-100, looked up)
chain: MEEASEGGGNDRVRNLQSEVEGVKNIMTQNVERILARGENLEHLRNKTEDLEATSEHFKTTSQKVARKFWWKNVKMIVLICVIVFIIILFIVLFATGAFS
Question: Does B1 bind [2]?
Answer: Result: binds

Question: Does B2 bind [3]?
Answer: Result: binds
